This is an account of results in patent US20090136936A1 (RESEARCH DEVELOPMENT FOUNDATION, published 2009).

The labels stand for the following.
B19: Recombinant human FcγRI/CD64, extracellular domain, glycosylated (receptor, UniProt P12314 16-292, looked up)
chain: QVDTTKAVITLQPPWVSVFQEETVTLHCEVLHLPGSSSTQWFLNGTATQTSTPSYRITSASVNDSGEYRCQRGLSGRSDPIQLEIHRGWLLLQVSSRVFTEGEPLALRCHAWKDKLVYNVLYYRNGKAFKFFHWNSNLTILKTNISHNGTYHCSGMGKHRYTSAGISVTVKELFPAPVLNASVTSPLLEGNLVTLSCETKLLLQRPGLQLYFSFYMGSKTLRGRNTSSEYQILTARREDSGLYWCEAATEDGNVLKRSPELELQVLGLQLPTPVWFH
notes: extracellular domain; also called FcγRIa; FcγRIa-FITC

For test [1], the target named is B19. The test is described as follows: flow cytometry of spheroplasts displaying the Fc, labelled with FcγRIa-FITC [panel b].
For test [2], the target named is B19. Briefly: flow cytometry of spheroplasts displaying the Fc clone, labelled with FcγRIa-FITC; the value is repeated on D00019 and D00020. A general note: Flow cytometry measures light scatter and fluorescence of single cells or particles in a stream.
The target in test [3] is B19. Briefly: SPR (BIAcore 3000), FcγRIa immobilized on CM-5. A general note: Surface plasmon resonance follows binding to a sensor surface in real time, without labels.
Test [4] concerns the target T1, extracellular domain of aglycosylated FcγRIIIa purified from E. coli inclusion bodies, FITC-labeled (human, UniProt P08637 17-208).
T1 construct: extracellular domain; also called FcγRIIIa-FITC
Briefly: flow cytometry of spheroplasts displaying the Fc, labelled with FcγRIIIa-FITC.

In test [5] the target is Protein A-FITC (Staphylococcus aureus, UniProt P38507 37-477). The test is described as follows: flow cytometry of spheroplasts, PMT 700V, TB with 0.5M trehalose, labeling with Protein A-FITC [panel a].
The target in test [6] is T2, BSA (Bos taurus, UniProt P02769).
T2 construct: also called BSA coated
T2 sequence (P02769 25-607 limits assumed): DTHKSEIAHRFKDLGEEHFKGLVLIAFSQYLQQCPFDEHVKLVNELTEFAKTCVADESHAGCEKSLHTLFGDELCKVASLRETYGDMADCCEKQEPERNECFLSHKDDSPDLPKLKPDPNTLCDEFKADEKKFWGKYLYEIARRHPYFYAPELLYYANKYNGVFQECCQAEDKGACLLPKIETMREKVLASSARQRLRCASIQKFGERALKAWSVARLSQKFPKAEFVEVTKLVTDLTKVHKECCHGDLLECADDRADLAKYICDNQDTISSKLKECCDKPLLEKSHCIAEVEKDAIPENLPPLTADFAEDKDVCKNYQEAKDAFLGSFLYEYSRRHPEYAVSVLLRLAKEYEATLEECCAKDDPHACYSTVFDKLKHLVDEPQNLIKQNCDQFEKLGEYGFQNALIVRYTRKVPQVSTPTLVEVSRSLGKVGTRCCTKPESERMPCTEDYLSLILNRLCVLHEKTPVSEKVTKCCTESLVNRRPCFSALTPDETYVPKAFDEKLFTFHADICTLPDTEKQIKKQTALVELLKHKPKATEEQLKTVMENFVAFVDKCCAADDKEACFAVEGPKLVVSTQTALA
Briefly: fluorescence ELISA: BSA coated wells, FITC labeled FcγRIa serially diluted 4-fold [panel b].

As usually defined, the Kd is the constant that tells how readily two partners part at equilibrium. As a reminder, the koff is the rate constant with which the complex falls apart. The kon is the second-order rate constant of association.

T1 sequence (P08637 17-208): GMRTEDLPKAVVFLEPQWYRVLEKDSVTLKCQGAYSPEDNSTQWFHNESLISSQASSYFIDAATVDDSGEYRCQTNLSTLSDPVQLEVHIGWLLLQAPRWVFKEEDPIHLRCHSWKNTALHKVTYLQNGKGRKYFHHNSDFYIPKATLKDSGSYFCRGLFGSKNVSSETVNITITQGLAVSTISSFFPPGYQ

B1: Fc12 (N361D, E382V, M428I), aglycosylated Fc mutant (other)
chain: DKTHTCPPCPAPELLGGPSVFLFPPKPKDTLMISRTPEVTCVVVDVSHEDPEVKFNWYVDGVEVHNAKTKPREEQYNSTYRVVSVLTVLHQDWLNGKEYKCKVSNKALPAPIEKTISKAKGQPREPQVYTLPPSRDELTKDQVSLTCLVKGFYPSDIAVEWVSNGQPENNYKTTPPVLDSDGSFFLYSKLTVDKSRWQQGNVFSCSVIHEALHNHYTQKSLSLSPGK
Turning to B1, the “M (mean fluorescence intensity)” value in test [1] came to 307.

B2: Fc100 (other)
Fc chain: DKTHTCPPCPAPELLGGPSVFLFPPKPKDTLMISRTPEVTCVVVDVSHEDPEVKFNWYVDGVEVHNAKTKPREEQYNSTYRVVSVLTVLHQDWLNGKEYKCKVSNKALPAPIEKTISKAKGQPREPQVYTLPPSRDELTKNQVSLTCLVKGFYPSDIAVTWMSEGQPENNYKTTPPVLDSDGSFFLYSKLTVDKSRWQQGNVFSCSVMHEALHNHYTQKSLSLSPGK
For the molecule B2, in test [2], the FACS mean value worked out at 138.

B3: Fc102 (other)
Fc chain: DKTHTCPPCPAPELLGGPSVFLFPPKPKDTLMISRTPEVTCVVVDVSHEDPEVKFNWYVDGVEVHNAKTKPREEQYNSTYRVVSVLTVLHQDWLNGKEYKCKVSNKALPAPIEKTISKAKGQPREPQVYTLPPSRDELTKDQVSLTCLVKGFYPSDIAVEWVSNGQPENNYKTTPPVLDSDGSFFLYSKLTVDKSRWQQGNVFSCSVIHEALHNHYTQKSLSLSPGK
For the molecule B3, in test [2], the FACS mean value was 374.

B4: Fc106 (E382T, N384D, M428I), aglycosylated Fc mutant (other)
chain: DKTHTCPPCPAPELLGGPSVFLFPPKPKDTLMISRTPEVTCVVVDVSHEDPEVKFNWYVDGVEVHNAKTKPREEQYNSTYRVVSVLTVLHQDWLNGKEYKCKVSNKALPAPIEKTISKAKGQPREPQVYTLPPSRDELTKNQVSLTCLVKGFYPSDIAVEWTSDGQPENNYKTTPPVLDSDGSFFLYSKLTVDKSRWQQGNVFSCSVIHEALHNHYTQKSLSLSPGK
Consider B4, for which the FACS mean value in test [2] worked out at 269.

B5: Fc151 (E382V, S426I, M428L, E430S), aglycosylated Fc mutant (other)
chain: DKTHTCPPCPAPELLGGPSVFLFPPKPKDTLMISRTPEVTCVVVDVSHEDPEVKFNWYVDGVEVHNAKTKPREEQYNSTYRVVSVLTVLHQDWLNGKEYKCKVSNKALPAPIEKTISKAKGQPREPQVYTLPPSRDELTKNQVSLTCLVKGFYPSDIAVEWVSNGQPENNYKTTPPVLDSDGSFFLYSKLTVDKSRWQQGNVFSCIVLHSALHNHYTQKSLSLSPGK
Take B5: the FACS mean value in test [2] is 326.

B6: Fc149 (E380D, E382V, N384R, S426V, M428L, E430D), aglycosylated Fc mutant (other)
chain: DKTHTCPPCPAPELLGGPSVFLFPPKPKDTLMISRTPEVTCVVVDVSHEDPEVKFNWYVDGVEVHNAKTKPREEQYNSTYRVVSVLTVLHQDWLNGKEYKCKVSNKALPAPIEKTISKAKGQPREPQVYTLPPSRDELTKNQVSLTCLVKGFYPSDIAVDWVSRGQPENNYKTTPPVLDSDGSFFLYSKLTVDKSRWQQGNVFSCVVLHDALHNHYTQKSLSLSPGK
With B6, the FACS mean value in test [2] was 140.

B7: Fc20 (N361D, F372L, E382V, M428I), aglycosylated Fc mutant (other)
chain: DKTHTCPPCPAPELLGGPSVFLFPPKPKDTLMISRTPEVTCVVVDVSHEDPEVKFNWYVDGVEVHNAKTKPREEQYNSTYRVVSVLTVLHQDWLNGKEYKCKVSNKALPAPIEKTISKAKGQPREPQVYTLPPSRDELTKDQVSLTCLVKGLYPSDIAVEWVSNGQPENNYKTTPPVLDSDGSFFLYSKLTVDKSRWQQGNVFSCSVIHEALHNHYTQKSLSLSPGK
In the case of B7, in test [1], the “M (mean fluorescence intensity)” value was 295.

B8: Fc49 (C229R, E382V, M428I), aglycosylated Fc mutant (other)
chain: DKTHTCPPRPAPELLGGPSVFLFPPKPKDTLMISRTPEVTCVVVDVSHEDPEVKFNWYVDGVEVHNAKTKPREEQYNSTYRVVSVLTVLHQDWLNGKEYKCKVSNKALPAPIEKTISKAKGQPREPQVYTLPPSRDELTKNQVSLTCLVKGFYPSDIAVEWVSNGQPENNYKTTPPVLDSDGSFFLYSKLTVDKSRWQQGNVFSCSVIHEALHNHYTQKSLSLSPGK
notes: also called aglycosylated-Fc49
As for B8, in test [3], the Kd was 0.092 µM, the koff is 0.0023 s⁻¹ and the kon is 25000 M⁻¹ s⁻¹. For the same molecule, the “M (mean fluorescence intensity)” value in test [1] came to 409.

B9: Fc23 (H310Y, K322R, T350A, E382V, S426T, S442P), aglycosylated Fc mutant (other)
chain: DKTHTCPPCPAPELLGGPSVFLFPPKPKDTLMISRTPEVTCVVVDVSHEDPEVKFNWYVDGVEVHNAKTKPREEQYNSTYRVVSVLTVLYQDWLNGKEYKCRVSNKALPAPIEKTISKAKGQPREPQVYALPPSRDELTKNQVSLTCLVKGFYPSDIAVEWVSNGQPENNYKTTPPVLDSDGSFFLYSKLTVDKSRWQQGNVFSCTVMHEALHNHYTQKSLPLSPGK
In the case of B9, the “M (mean fluorescence intensity)” value in test [1] turned out to be 335.

B10: Fc147 (other)
Fc chain: DKTHTCPPRPAPELLGGPSVFLFPPKPKDTLMISRTPEVTCVVVDVSHEDPEVKFNWYVDGVEVHNAKTKPREEQYNSTYRVVSVLTVLHQDWLNGKEYKCKVSNKALPAPIEKTISKAKGQPREPQVYTLPPSRDELTKNQVSLTCLVKGFYPSDIAVEWVSNGQPENNYKTTPPVLDSDGSFFLYSKLTVDKSRWQQGNVFSCSVIHEALHNHYTQKSLSLSPGK
In the case of B10, the FACS mean value in test [2] turned out to be 464.

B11: Fc143 (P238S, E382V, S426V, M428L, E430H), aglycosylated Fc mutant (other)
chain: DKTHTCPPCPAPELLGGSSVFLFPPKPKDTLMISRTPEVTCVVVDVSHEDPEVKFNWYVDGVEVHNAKTKPREEQYNSTYRVVSVLTVLHQDWLNGKEYKCKVSNKALPAPIEKTISKAKGQPREPQVYTLPPSRDELTKNQVSLTCLVKGFYPSDIAVEWVSNGQPENNYKTTPPVLDSDGSFFLYSKLTVDKSRWQQGNVFSCVVLHHALHNHYTQKSLSLSPGK
Consider B11, for which the FACS mean value in test [2] came to 211.

B12: Fc152 (H224R, E382V, S426T, M428S, E430P), aglycosylated Fc mutant (other)
chain: DKTRTCPPCPAPELLGGPSVFLFPPKPKDTLMISRTPEVTCVVVDVSHEDPEVKFNWYVDGVEVHNAKTKPREEQYNSTYRVVSVLTVLHQDWLNGKEYKCKVSNKALPAPIEKTISKAKGQPREPQVYTLPPSRDELTKNQVSLTCLVKGFYPSDIAVEWVSNGQPENNYKTTPPVLDSDGSFFLYSKLTVDKSRWQQGNVFSCTVSHPALHNHYTQKSLSLSPGK
For B12, the FACS mean value in test [2] came to 173.

B13: Fc114 (N361S, E382V, M428I), aglycosylated Fc mutant (other)
chain: DKTHTCPPCPAPELLGGPSVFLFPPKPKDTLMISRTPEVTCVVVDVSHEDPEVKFNWYVDGVEVHNAKTKPREEQYNSTYRVVSVLTVLHQDWLNGKEYKCKVSNKALPAPIEKTISKAKGQPREPQVYTLPPSRDELTKSQVSLTCLVKGFYPSDIAVEWVSNGQPENNYKTTPPVLDSDGSFFLYSKLTVDKSRWQQGNVFSCSVIHEALHNHYTQKSLSLSPGK
Take B13: the FACS mean value in test [2] turned out to be 370.

B14: Fc217 (LGDGSPCKAN insertion between N297 and S298), aglycosylated Fc mutant (other)
chain: DKTHTCPPCPAPELLGGPSVFLFPPKPKDTLMISRTPEVTCVVVDVSHEDPEVKFNWYVDGVEVHNAKTKPREEQYNLGDGSPCKANSTYRVVSVLTVLHQDWLNGKEYKCKVSNKALPAPIEKTISKAKGQPREPQVYTLPPSRDELTKNQVSLTCLVKGFYPSDIAVEWESNGQPENNYKTTPPVLDSDGSFFLYSKLTVDKSRWQQGNVFSCSVMHEALHNHYTQKSLSLSPGK
For B14, the “M (mean fluorescence intensity)” value in test [4] turned out to be 500.

B15: Fc207 (QLISHYRHLT insertion between N297 and S298), aglycosylated Fc mutant (other)
chain: DKTHTCPPCPAPELLGGPSVFLFPPKPKDTLMISRTPEVTCVVVDVSHEDPEVKFNWYVDGVEVHNAKTKPREEQYNQLISHYRHLTSTYRVVSVLTVLHQDWLNGKEYKCKVSNKALPAPIEKTISKAKGQPREPQVYTLPPSRDELTKNQVSLTCLVKGFYPSDIAVEWESNGQPENNYKTTPPVLDSDGSFFLYSKLTVDKSRWQQGNVFSCSVMHEALHNHYTQKSLSLSPGK
B15: the “M (mean fluorescence intensity)” value in test [4] was determined as 143.

B16: Fc209 (F241L, K326E, EVPLVWMWVS insertion between N297 and S298), aglycosylated Fc mutant (other)
chain: DKTHTCPPCPAPELLGGPSVLLFPPKPKDTLMISRTPEVTCVVVDVSHEDPEVKFNWYVDGVEVHNAKTKPREEQYNEVPLVWMWVSSTYRVVSVLTVLHQDWLNGKEYKCKVSNEALPAPIEKTISKAKGQPREPQVYTLPPSRDELTKNQVSLTCLVKGFYPSDIAVEWESNGQPENNYKTTPPVLDSDGSFFLYSKLTVDKSRWQQGNVFSCSVMHEALHNHYTQKSLSLSPGK
For B16, the “M (mean fluorescence intensity)” value in test [4] turned out to be 291.

B17: Fc216 (WQVFNKYTKP insertion between N297 and S298), aglycosylated Fc mutant (other)
chain: DKTHTCPPCPAPELLGGPSVFLFPPKPKDTLMISRTPEVTCVVVDVSHEDPEVKFNWYVDGVEVHNAKTKPREEQYNWQVFNKYTKPSTYRVVSVLTVLHQDWLNGKEYKCKVSNKALPAPIEKTISKAKGQPREPQVYTLPPSRDELTKNQVSLTCLVKGFYPSDIAVEWESNGQPENNYKTTPPVLDSDGSFFLYSKLTVDKSRWQQGNVFSCSVMHEALHNHYTQKSLSLSPGK
As for B17, the “M (mean fluorescence intensity)” value in test [4] worked out at 496.

B18: dsbA-FcγRIIa-His (receptor, Homo sapiens, UniProt P12318 34-217, looked up)
receptor chain: QAAAPPKAVLKLEPPWINVLQEDSVTLTCQGARSPESDSIQWFHNGNLIPTHTQPSYRFKANNNDSGEYTCQTGQTSLSDPVHLTVLSEWLVLQTPHLEFQEGETIMLRCHSWKDKPLVKVTFFQNGKSQKFSHLDPTFSIPQANHSHSGDYHCTGNIGYTLFSSKPVTITVQVPSMGSSSPMG
notes: soluble mature form, exported to the E. coli periplasm by the dsbA signal; also called product of pTrcdsbAHis-FcγRIIa
For B18, in test [5], the binding result was “no binding”.

Turning to B19, in test [6], the binding result is on record as “no binding”.
